Experimental data published in the nanobody polyreactivity screen of Harvey et al. (2022).

assay: yeast display, Sf9 membrane polyspecificity reagent, FACS + sequencing; frameworks hold sequencing errors
Procedure, shortened: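 Galactose induction of a Saccharomyces cerevisiae BJ5465 synthetic nanobody display library ran 36–48 hours. The cells were then stained for 1 hour at 4 °C with 10% biotinylated, detergent-solubilized Sf9 membrane reagent, pulled down on streptavidin microbeads and FACS-sorted into low and high (top ~1%) gates on expression and reagent-binding fluorescence. Labels for polyreactivity follow the gate of origin.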

| Sequence | polyreactivity (PSR sort gate) |
| --- | --- |
| QVQLQESGGGLVQAGGSLRLSCAASGSIFYEFYMGWYRQAPGKERELVAAIANGASTHYADSVKGRFTISRDNSNNTVYLQMSSLKQEDTAVYYCAVNTTSDIDYIYWGQGTQVNVSS | low polyreactivity |
| QVQLQESGGGLVQAGGSLRLSCAASGSILFSTLMGWSRQAPGKERELVATITTGTFTNYAGSVKGRFTISRDNAENTVYLQMNSLRPEDTAVYYSADYANHKAGFYYWGQGTQVTVSS | high polyreactivity |
| QVQLQESGGGLVQAGGSLRLSCAASGSISAVGAMGWYRQAPGKEREFAASVNWGTNTNYADSVKGRFTISRDNAKNTLYLQMNSLKPEDTAVYYCAVLPDWETRHEYWGHGTQVTVSS | low polyreactivity |
| QVQLQESGGGLVQAGGSLRLSCAASGSISGPHVMGWYRQAPGKEREFVAAINVGANTYYADNVKGRFTISRDNANNTVYLQMNSLKPEDTAVYYCAAVYYGDIGHEYWGQGTQVTVSC | low polyreactivity |
| QVQLQESGGGLVQAGGSLRLSCAASGSISRLDYMGWYRQASGKERELVAAIDNGRTTYYAESVKGRLTISRDNAKYTVYLQMNSLKPEDTAVYCCAAVRGRGGTHAYWGQGTQVTVSG | low polyreactivity |
| QVQLQESGGGLVQAGGSLRLSCAASGSISYPRTMGWYSQAPGQEREFVAGIGVGGNTYYAESVKGRFTISSDNAKNTVYLQMNSQKPEDTAVYYCNAEWYYPYYYSRMDYWGLGTQVTVSS | low polyreactivity |
| QVQLQESGGGLVQAGGSLRLSCAASGSIVVSVTMGWYRKAPGKESELVASIGRGSTTNHADSVKGRFTISRDNAKNIVDLLLNSLKPEDNAVYYCAALESYGKYHGYWGEGTQVTVSS | low polyreactivity |
| QVQLQESGGGLVQAGGSLRLSCAASGTIFRFRYMGWHRQAPGKERELVAGINGGTTTYYADSVIGRFTISRVNAKNTVYLQMKSLKPDDTAVYNCAAGASRLTYYDYWGQGTQVTVSS | low polyreactivity |
| QVQLQESGGGLVQAGGSLRLSCAASGTIFRISDMGSYRQAPGKEREFVAAITYGANTYYADSGKGRFTISRDNAKNTVSLQMNSLKPEDTAVYYCAVPPVKETILDYWGQGTQVTVSS | low polyreactivity |
| QVQLQESGGGLVQAGGSLRLSCAASGTISDSGLMGWYRQAPGKERELVAGISSGGITNYADSVKGRFTISRDNAKNTVYLQMNSLKPDDTAVYWGQGTQVTVSS | low polyreactivity |
| QVQLQESGGGLVQAGGSLRLSCAASGTISPLPAMGWYRQAPGKEREFVAGIDTGAITNYADSVKGRFTISRDNAKITVYLQMNSLKPEDTAVYYCAVFPAAYDYYERYYTYWGQGTQVTVSS | low polyreactivity |
| QVQLQESGGGLVQAGGSLRLSCAASGTISPLPAMGWYRQAPGKEREFVAGIDTGAITNYADSVKGRFTISRDNAKNTVYLQMNSLKPEDTAVYYCAADLFLDGSSQYAPNWWPDGWNTYRLLGGYWGQGTQVTVSS | low polyreactivity |
| QVQLQESGGGLVQAGGSLRLSCAASGTISPLPAMGWYRQAPGKEREFVAGIDTGAITNYADSVKGRFTISRDNAKNTVYLQMNSLKPEDTAVYYCAVFPAAYDYYERYYTYWGQGTQVTVSS | high polyreactivity |
| QVQLQESGGGLVQAGGSLRLSCAASGTISPLPAMGWYRQAPGKEREFVAGIDTGAITNYADSVKGRFTISRDNAKNTVYLQMNSLKPVDTAVYYCAVFPAAYDYYERYYTYWGQGTQVTVSS | low polyreactivity |
| QVQLQESGGGLVQAGGSLRLSCAASGTISQEDWKGWYRQAPGKEREFVAAIGLGSNTNYADSLKGRFTISRDNAKNTVYLQMNSLKQEDTAVYYCAVSVWQYSDHVYRGQGTQVTVSS | low polyreactivity |
| QVQLQESGGGLVQAGGSLRLSCAASGTISVHASMGWYRQAPGKERELVAGITDGANTYYADSVKGRFTISRDNSKNTVYLQMNSLKPEDTAVYYCAAYYGTEVHFTYWGQGTQVTVSS | low polyreactivity |
| QVQLQESGGGLVQAGGSLRLSCAASGTISYAPHMGWYRQAPGKERELVAGITIVGTTYYADSVKGRFTISRDNAKNTVYLQMNSLSPGDTAVYYCAAHSEQYTPFYYWGQGTQVTVSS | low polyreactivity |
| QVQLQESGGGLVQAGGSLRLSCAASGTITVLYKMGWFRQAPGKEREFFASINYGTSTYYADSVKGRFTVSRDSAKNTVYLQMISLKPEDTAVYYGAAAYRWQDVYRYWGQVTQVTVSS | low polyreactivity |
| QVQLQESGGGLVQAGGSLRLSCAASGTITVLYKMGWFRQAPGKEREFVASINYGTSTYYADSVKGRFTVSRDSAKNSVYLQMNSLKPEDTAVYYCAAAYRWQDVYRYWGQGTQVTVSS | low polyreactivity |
| QVQLQESGGGLVQAGGSLRLSCAASGYISHADEMGWYRQAPGKDHELVASISNGGSTNYADSVKGRFTISRDHAKNTVYLQMNSLNSEDTAVYYCAAWTGQVDIHYYWGQGTQVTVSS | low polyreactivity |
| QVQLQESGGGLVQAGGSLRLSCAASGYISHADEMGWYRQAPGKEHELVASISNGGSTNYADSVKGRFTISRDNAKNPVNLQMNSLKSEDTAVYYCAALTGQVAIHYYWGQGTQVTVSS | low polyreactivity |

| Sequence | polyreactivity (PSR sort gate) |
| --- | --- |
| QVQLQESGGGLVQAGGSLRLSCAASGYISSWYPMGWYRQAPGKEREFVATIAPRATTYYADSVKGRFTISRDYAKNTVYLQMNSLKPEDTAVYYCAAGPENNDVYSYWGQGTQVTVSS | low polyreactivity |
| QVQLQESGGGLVQAGGSLRLSCAASGYISTFSSEMGWYRQAPGKERELVASIAPGCTTSYADSVKGRFTISRDNAKNTVYLQMNSLKPEDTAVYYCAVDYTVPASFGYWGQGTQVTVSS | high polyreactivity |
| QVQLQESGGGLVQAGGSLRLSCAASGYISWYSEMGWYRQAPGKEREFVATITCGTTTNYAVSVKGRFTISRDNAKNTVYLQKNSLKPEDTAVYYCAVHDARHYEFDYWGQGTQVTVSS | high polyreactivity |
| QVQLQESGGGLVQAGGSLRLSCAASSNNSTLDVKGWYRQAPGKEREFVASIGSGGITNYADSVKGRFTISRDNAKNTVYLQMNSLKPEDTAVYYCAVLNQAYTDLIYWGQGTQVTVSS | high polyreactivity |
| QVQLQESGGGLVQAGGSLRLSCAESGSISRYYDMGWYRQAPGKEREFVAGISGGAITYYADSVKGRFTISRDNAKNTVYLQMNSLKPEDTAVYYCAADTGVYQYHSYWGQGTQVTVSS | low polyreactivity |
| QVQLQESGGGLVQAGGSLRLSCAESGTIFRISDMGSYRQAPGKEREFVASITYGANTYYADSGKGRFTISRDNAKNTVYLQMNSLKPEDTAVYYCAVPPVKETILDYWGQGTQVTVCS | low polyreactivity |
| QVQLQESGGGLVQAGGSLRLSCASSGSISGPHVMGWYRQAPGKEREFVAAINVGANTYYADNVKGRFTISRDNAKNTVYLQMNSLKPEDTAVYYCAAVYYGDIGHEYWGQGTQVTVSC | low polyreactivity |
| QVQLQESGGGLVQAGGSLRLSCASSGTISPLPAMGWYRQAPGKEREYVAGIDTGAITNYADSVKGRFTISRDNAKNTVYLQMNSLQPEDTAVYYCAVFPAAYDYYESYYTYWGQGTQVTVSS | low polyreactivity |
| QVQLQESGGGLVQAGGSLRLSCAVSGTIFFPLDMGWYRQAPGRELEYVAAIAEGTSTYYADSVKGRFTISRDNAKNTVYPQMYSLKPEDTAVYYCAAYRSTPQQFHYWGQGTQVTVSS | high polyreactivity |
| QVQLQESGGGLVQAGGSLRLSCEASCYISDVNDMGWYRQAPGKEREFVAGFGYGGITNYADSVKGRFTISRDNAKNTVYLQMNSLKPKDSAVYNCAVHWGPDRGLYYWGQGTQVTVSS | high polyreactivity |
| QVQLQESGGGLVQAGGSLRMSCAARGTIFWQWAMGWYCQAPGKERELVASISSGGTTYHADSVKGRFTISRDNAKNTVYLQMNSLKPEDTAVYYCNAPNWSVAYVYITQEMDYWGQGTQVTVSS | low polyreactivity |
| QVQLQESGGGLVQAGGSLRMSCASSGTIFRISDMGSYRQAPGKDSEFVAAITYGANTYYADSGKGRFTISRDNAKNTVYLQMNSLKPEDTAVYYCAVPPVKETILDYWGQGTQVTVSS | low polyreactivity |
| QVQLQESGGGLVQAGGSLRPRCAPAGTIFLSVNMGWYRHAPGEEREFVASITQGATTNYADSLIGRFTISRDNAKNTVYLQMNCQKPEDTAVYYCAAYPRFYGGKYGEYGYWGQGTQVTVSS | high polyreactivity |
| QVQLQESGGGLVQAGGSLRPSCAASGSISDGVPMGWYRQAPGEERELVATTVLGATTNYADSVKGRFTISRGNAKYTVYLQMNSLKPEETAVYYCAAPLRYDKGFSYWGQGTQVTVSS | low polyreactivity |
| QVQLQESGGGLVQAGGSLRQSCAASGSIFKVVDMGLYRQAPAKEREFVATIGEGGNTYYADSVKGRFTISRDNAKNTVYLQMNSLKPEDTAVYFYAVVLGSSYSYTYWGQGTQVTVSS | low polyreactivity |
| QVQLQESGGGLVQAGGSLRQSCASSGYIFPYNSMGWYRQAPGKERGLVACIAAGTTTNYADSVKGRFTISRDNAKNTVYLQMNSLKPEDAAVYYCAALNAFNTGHWYWGQGTQVTVSS | low polyreactivity |
| QVQLQESGGGLVQAGGSLRQSCEASGYIFPYYSMGWYRQAPGKERGLVACIAAGTTTNYADSVKVRFTISRDNAKNTVYLQMNSLKPEDAAVYYCAALNAFNPGHWYWGQGSQVTVSS | low polyreactivity |
| QVQLQESGGGLVQAGGSLRQSYAASGYIFPSLAMGWYRQAPGKEREFVAAIGRGSTNNYADSVKGRFTISRDNAKNTAFQHMKSLKPEDTAVYYCAAAASPLTRHLYWGQGTQVSVSS | low polyreactivity |
| QVQLQESGGGLVQAGGSLRQSYAASGYIFPSLAMGWYRQAPGKEREFVAAIGRGSTNNYADSVKGRFTISRDNAKNTAYLQMNSLKPEDTAVYYCAAAASPLNRHLYWGQGTQVTVSS | low polyreactivity |
| QVQLQESGGGLVQAGGSLRQSYAASGYIFPSLAMGWYRQAPGKEREFVAAIGRGSTNNYEDSVKGRFTISRDNAKNTAYQQMNRLKPEDTAVYYCAAAASPLTRDLYWGQGTQVTVSS | low polyreactivity |
